Data: PMC6213189, “ABD-Derived Protein Blockers of Human IL-17 Receptor A as Non-IgG Alternatives for Modulation of IL-17-Dependent Pro-Inflammatory Axis” (International Journal of Molecular Sciences, 2018)
Ends that are not written are not given here. TolA = 305-residue helical TolA spacer protein; AVI = AviTag

B1: His6-ARS043-TolA-AVI (designed binder)
chain: His6-LAEAKVLANRELDKYGVSDLYKNMINMALWVTGVKWLIDPILATLP
modifications: not fully specified (C-terminus); also: His6-TolA-AviTag fusion, not in given chain, biotin on the AviTag (in vivo biotinylated)
notes: ABD-derived variant selected by ribosome display; source: E. coli BL21 (DE3) BirA, purified (Ni-NTA); not shown: His6, N-terminal, kept; TolA spacer protein (305 residues), C-terminal, kept
B2: His6-ARS012-TolA-AVI (designed binder)
chain: His6-LAEAKVLANRELDKYGVSDVYKLINMALYVTGVKPWIDVILAVLP-{TolA-AVI}
modifications: also: biotin on the AviTag (in vivo biotinylated)
notes: ABD-derived variant selected by ribosome display; position 23 is deleted; source: E. coli BL21 (DE3) BirA, purified (Ni-NTA); not shown: His6, N-terminal, kept; TolA spacer protein (305 residues), C-terminal, kept
B3: His6-ARS014-TolA-AVI (designed binder)
chain: His6-LAEAKVLANRELDKYGVSDVYKNLINYAWLVMWVPIDAILALLP-{TolA-AVI}
modifications: also: biotin on the AviTag (in vivo biotinylated)
notes: ABD-derived variant selected by ribosome display; positions 35-36 are deleted; source: E. coli BL21 (DE3) BirA, purified (Ni-NTA); not shown: His6, N-terminal, kept; TolA spacer protein (305 residues), C-terminal, kept
B4: His6-ARS004-TolA-AVI (designed binder)
chain: His6-LAEAKVLANRELDKYGVSDVYKLINYACPVTWVKWVIDPILAMLP-{TolA-AVI}
modifications: also: biotin on the AviTag (in vivo biotinylated)
notes: as for B2
B5: His6-ARS019-TolA-AVI (designed binder)
chain: His6-LAEAKVLANRELDKYGVSDMYKNVINIAWWVSIVKYPIDCILALLP
modifications: not fully specified (C-terminus); also: His6-TolA-AviTag fusion, not in given chain, biotin on the AviTag (in vivo biotinylated)
notes: as for B1

What follows are binders tested against T1, human IL-17RA on the cell surface (human (endogenous in THP-1 and HaCaT), UniProt Q96F46 33-866) (assay: LigandTracer Green Line (real-time binding to cells); adherent HaCaT cells on a dish; biotinylated His6-ARS-TolA-AVI added stepwise (3, 30, 90 nM by the results), then dissociation in fresh medium or PBS (ARS043); one-to-one model, TraceDrawer). Settings: one partner purified.
T1 construct: human IL-17 receptor A, endogenous on the surface of human cell lines; Expression on THP-1 was confirmed with an anti-IL-17RA antibody; also called cell-surface IL-17RA; IL-17RA-expressing THP-1 cells; source: endogenous, on THP-1 cells; endogenous, on HaCaT cells

Row | Binder | Kd
1 | B1 | 32 nM
2 | B2 | 35 nM
3 | B3 | 2 nM
4 | B4 | 1.2 nM
5 | B5 | 0.7 nM
